Source: publication PMC4947157

B1: ICL14FF (dsDNA)
DNA 1: CATTGTGAATTCGCCTCTCTGTCTAGCCGAAGCTCGAAACGATCTTGTGC
DNA 2: GTCCATCAAAGTTCGACTGTGCGGCTAGACAGAGAGGCGAATTCACAATG
DNA 3: GCACAAGATCGTTTCGAGCTT
DNA 4: GTCGAACTTTGATGGAC
B2: ICL14FF-XL (dsDNA)
DNA 1: B1 DNA 1
DNA 2: B1 DNA 2
DNA 3: GCACAAGATCGTTTCGAGCTT
DNA 4: GTCGAACTTTGATGGAC
modifications: 4,5',8-trimethylpsoralen (TMP) interstrand crosslink between S5 and S6; crosslinked bases bold in original, not recoverable from text

What was measured:
FANCD2;FANCI [1] = molecular target: T1, FANCD2;FANCI (Homo sapiens;Homo sapiens, UniProt Q9BXW9;Q9NVI1 1-1451;1-1328, |); test: EMSA; supershifted by anti-HA; 0.5 ug protein, 1 nM DNA; titrated 0.125-0.5 ug; EMSA: 25 mM Tris-HCl pH 7.5, 100 mM NaCl, 6% glycerol, 1 mM DTT, 10 ul, room temperature 1 h; 4% PAGE in 0.4x TBE at 4 C
T1 sequence (Q9BXW9 whole entry, chain 1 of 2): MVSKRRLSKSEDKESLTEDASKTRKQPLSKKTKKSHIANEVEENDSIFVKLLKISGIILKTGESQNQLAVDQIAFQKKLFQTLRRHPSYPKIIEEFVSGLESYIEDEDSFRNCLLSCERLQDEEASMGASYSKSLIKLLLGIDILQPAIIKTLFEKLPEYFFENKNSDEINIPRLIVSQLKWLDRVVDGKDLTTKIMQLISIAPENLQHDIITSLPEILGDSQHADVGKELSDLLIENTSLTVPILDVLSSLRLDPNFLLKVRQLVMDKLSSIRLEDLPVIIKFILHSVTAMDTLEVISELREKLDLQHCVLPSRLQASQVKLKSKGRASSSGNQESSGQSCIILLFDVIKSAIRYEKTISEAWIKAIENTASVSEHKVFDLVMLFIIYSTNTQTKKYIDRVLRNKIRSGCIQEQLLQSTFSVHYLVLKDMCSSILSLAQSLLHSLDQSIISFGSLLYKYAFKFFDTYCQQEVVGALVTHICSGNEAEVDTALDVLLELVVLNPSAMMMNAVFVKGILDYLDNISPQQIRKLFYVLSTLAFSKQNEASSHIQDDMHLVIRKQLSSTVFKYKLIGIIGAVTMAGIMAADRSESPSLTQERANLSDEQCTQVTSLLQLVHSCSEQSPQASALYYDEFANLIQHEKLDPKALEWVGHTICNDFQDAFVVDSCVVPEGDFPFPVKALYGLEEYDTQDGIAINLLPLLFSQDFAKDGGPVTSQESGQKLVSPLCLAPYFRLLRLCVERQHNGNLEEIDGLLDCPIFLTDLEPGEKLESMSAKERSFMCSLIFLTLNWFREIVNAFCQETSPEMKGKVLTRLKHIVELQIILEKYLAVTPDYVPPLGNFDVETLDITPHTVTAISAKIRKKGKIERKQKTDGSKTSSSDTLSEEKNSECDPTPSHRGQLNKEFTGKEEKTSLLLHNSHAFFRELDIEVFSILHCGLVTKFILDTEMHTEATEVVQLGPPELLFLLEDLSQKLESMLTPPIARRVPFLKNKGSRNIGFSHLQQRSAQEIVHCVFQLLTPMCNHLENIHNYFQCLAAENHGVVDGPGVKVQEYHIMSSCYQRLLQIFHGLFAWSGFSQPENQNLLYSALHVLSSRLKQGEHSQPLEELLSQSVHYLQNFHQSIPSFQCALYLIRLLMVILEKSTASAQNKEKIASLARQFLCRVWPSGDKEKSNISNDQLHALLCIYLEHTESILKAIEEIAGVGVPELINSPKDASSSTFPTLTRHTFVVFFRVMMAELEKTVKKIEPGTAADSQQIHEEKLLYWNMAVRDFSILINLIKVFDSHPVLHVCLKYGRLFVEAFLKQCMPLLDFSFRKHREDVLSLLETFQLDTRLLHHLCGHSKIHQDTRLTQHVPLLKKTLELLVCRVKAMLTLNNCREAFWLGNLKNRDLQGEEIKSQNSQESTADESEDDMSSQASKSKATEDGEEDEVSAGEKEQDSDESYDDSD
T1 sequence (Q9NVI1 whole entry, chain 2 of 2): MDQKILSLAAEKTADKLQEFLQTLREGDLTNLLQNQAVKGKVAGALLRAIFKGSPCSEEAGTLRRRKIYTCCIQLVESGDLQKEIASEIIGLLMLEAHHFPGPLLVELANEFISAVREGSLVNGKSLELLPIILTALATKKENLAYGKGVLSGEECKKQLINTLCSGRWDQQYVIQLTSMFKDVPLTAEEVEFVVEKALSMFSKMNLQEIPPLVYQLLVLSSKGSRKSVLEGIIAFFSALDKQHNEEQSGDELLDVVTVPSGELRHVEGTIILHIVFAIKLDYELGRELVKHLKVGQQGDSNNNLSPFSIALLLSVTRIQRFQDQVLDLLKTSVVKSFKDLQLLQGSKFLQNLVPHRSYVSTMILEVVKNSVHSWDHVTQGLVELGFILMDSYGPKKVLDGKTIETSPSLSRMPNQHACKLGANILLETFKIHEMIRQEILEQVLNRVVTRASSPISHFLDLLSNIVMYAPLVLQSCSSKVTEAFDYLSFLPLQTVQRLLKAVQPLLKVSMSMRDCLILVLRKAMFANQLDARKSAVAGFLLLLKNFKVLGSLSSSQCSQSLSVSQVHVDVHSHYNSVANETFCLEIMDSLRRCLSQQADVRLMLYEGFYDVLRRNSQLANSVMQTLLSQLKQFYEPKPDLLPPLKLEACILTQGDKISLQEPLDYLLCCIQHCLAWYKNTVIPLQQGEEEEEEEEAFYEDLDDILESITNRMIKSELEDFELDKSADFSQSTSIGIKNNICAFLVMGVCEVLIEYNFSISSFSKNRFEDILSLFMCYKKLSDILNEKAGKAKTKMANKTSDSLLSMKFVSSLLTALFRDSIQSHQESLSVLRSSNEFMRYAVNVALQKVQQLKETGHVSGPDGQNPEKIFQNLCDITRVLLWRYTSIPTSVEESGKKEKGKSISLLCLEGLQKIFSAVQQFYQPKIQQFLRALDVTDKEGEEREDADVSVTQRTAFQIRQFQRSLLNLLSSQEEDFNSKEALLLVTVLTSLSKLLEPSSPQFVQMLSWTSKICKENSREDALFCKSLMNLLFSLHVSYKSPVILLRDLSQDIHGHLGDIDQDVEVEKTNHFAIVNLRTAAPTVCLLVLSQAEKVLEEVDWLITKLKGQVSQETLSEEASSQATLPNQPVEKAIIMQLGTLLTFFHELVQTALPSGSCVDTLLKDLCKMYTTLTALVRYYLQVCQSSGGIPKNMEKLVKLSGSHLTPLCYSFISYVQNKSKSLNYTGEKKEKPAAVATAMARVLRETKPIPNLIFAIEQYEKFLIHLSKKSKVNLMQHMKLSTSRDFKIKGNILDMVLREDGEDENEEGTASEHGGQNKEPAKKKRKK

FANCD2;FANCI [2] = molecular target: T1, FANCD2;FANCI; test: EMSA; 0.5 ug protein, 1 nM DNA; significantly stronger than non-crosslinked fork; titrated 0.125-0.5 ug; EMSA: 25 mM Tris-HCl pH 7.5, 100 mM NaCl, 6% glycerol, 1 mM DTT, 10 ul, room temperature 1 h; 4% PAGE in 0.4x TBE at 4 C

Binder | binding result (FANCD2;FANCI [1]) | binding result (FANCD2;FANCI [2])
B1 | binds | 
B2 |  | binds
